Data set [1] relates to HeLa Kyoto. The data set can be described thus: solubility in G1/S (NP-40 vs SDS abundance) (log2 ratio); higher = more soluble. The following applies: cell cycle stage: G1/S.
For data set [2], the system named is HeLa Kyoto. The data set is described as follows: melting temperature (median over replicates), in situ; higher = more thermally stable.
For data set [3], the system named is HeLa Kyoto. The data set can be described thus: solubility change mitosis vs G1/S (difference of NP-40 vs SDS log2 ratios) (log2 ratio difference); higher = more soluble in mitosis.
Data set [4] concerns HeLa Kyoto. The data set can be described thus: thermal stability score vs G1/S (z-score of summed log2 fold changes over temperatures); higher = more thermally stable than in G1/S.
Setting [5] is: cell cycle stage: early G1 (4.5 h after nocodazole release).
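Throughout, for melting temperature (median over replicates), in situ: HeLa Kyoto cells synchronized by double thymidine or nocodazole block, proteins quantified by TMT10plex mass spectrometry, three independent biological replicates.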
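Throughout, for solubility change mitosis vs G1/S (difference of NP-40 vs SDS log2 ratios): synchronized HeLa Kyoto cells (double thymidine block for G1/S, nocodazole release for mitosis), protein amounts in NP-40 versus SDS lysates quantified by mass spectrometry, three biological replicates.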
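Throughout, for solubility in G1/S (NP-40 vs SDS abundance): HeLa Kyoto cells arrested at G1/S by double thymidine block, proteins quantified by TMT10plex mass spectrometry in mild NP-40 versus SDS extracts, three biological replicates.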
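Throughout, for thermal stability score vs G1/S (z-score of summed log2 fold changes over temperatures): synchronized HeLa Kyoto cells, proteins quantified by TMT10plex mass spectrometry, three biological replicates, mitosis taken 0.5 h after nocodazole release, G1/S directly after double thymidine block.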

In the case of “MAGPRVEVDGSIMEGGGQILRVSTALSCLLGLPLRVQKIRAGRSTPGLRPQHLSGLEMIRDLCDGQLEGAEIGSTEITFTPEKIKGGIHTADTKTAGSVCLLMQVSMPCVLFAASPSELHLKGGTNAEMAPQIDYTVMVFKPIVEKFGFIFNCDIKTRGYYPKGGGEVIVRMSPVKQLNPINLTERGCVTKIYGRAFVAGVLPFKVAKDMAAAAVRCIRKEIRDLYVNIQPVQEPKDQAFGNGNGIIIIAETSTGCLFAGSSLGKRGVNADKVGIEAAEMLLANLRHGGTVDEYLQDQLIVFMALANGVSRIKTGPVTLHTQTAIHFAEQIAKAKFIVKKSEDEEDAAKDTYIIECQGIGMTNPNL [RTCA]”, the “solubility in G1/S (log2)” value in the data set on HeLa Kyoto [1] was determined as 0.177. Also, the melting temperature with HeLa Kyoto [2] (cell cycle stage: G1/S) and in the data set on HeLa Kyoto [2] (cell cycle stage: mitosis) was 54.4 °C throughout. Also, the “solubility change mitosis (log2)” value with HeLa Kyoto [3] is -0.173. In addition, the results for the thermal stability score with HeLa Kyoto [4] (setting [5]) and in the data set with HeLa Kyoto [4] (cell cycle stage: mitosis) were -1.26 and -1.94, respectively.
For “MAGQQFQYDDSGNTFFYFLTSFVGLIVIPATYYLWPRDQNAEQIRLKNIRKVYGRCMWYRLRLLKPQPNIIPTVKKIVLLAGWALFLFLAYKVSKTDREYQEYNPYEVLNLDPGATVAEIKKQYRLLSLKYHPDKGGDEVMFMRIAKAYAALTDEESRKNWEEFGNPDGPQATSFGIALPAWIVDQKNSILVLLVYGLAFMVILPVVVGSWWYRSIRYSGDQILIRTTQIYTYFVYKTRNMDMKRLIMVLAGASEFDPQYNKDATSRPTDNILIPQLIREIGSINLKKNEPPLTCPYSLKARVLLLSHLARMKIPETLEEDQQFMLKKCPALLQEMVNVICQLIVMARNREEREFRAPTLASLENCMKLSQMAVQGLQQFKSPLLQLPHIEEDNLRRVSNHKKYKIKTIQDLVSLKESDRHTLLHFLEDEKYEEVMAVLGSFPYVTMDIKSQVLDDEDSNNITVGSLVTVLVKLTRQTMAEVFEKEQSICAAEEQPAEDGQGETNKNRTKGGWQQKSKGPKKTAKSKKKKPLKKKPTPVLLPQSKQQKQKQANGVVGNEAAVKEDEEEVSDKGSDSEEEETNRDSQSEKDDGSDRDSDREQDEKQNKDDEAEWQELQQSIQRKERALLETKSKITHPVYSLYFPEEKQEWWWLYIADRKEQTLISMPYHVCTLKDTEEVELKFPAPGKPGNYQYTVFLRSDSYMGLDQIKPLKLEVHEAKPVPENHPQWDTAIEGDEDQEDSEGFEDSFEEEEEEEEDDD [SEC63]”, the “solubility in G1/S (log2)” value in the data set on HeLa Kyoto [1] was -0.14. The melting temperature with HeLa Kyoto [2] (cell cycle stage: G1/S) stood at 53 °C; with HeLa Kyoto [2] (cell cycle stage: mitosis), 53.1 °C. In the data set with HeLa Kyoto [3], the “solubility change mitosis (log2)” value was -0.1. Further, the thermal stability score in the data set with HeLa Kyoto [4] (setting [5]) is -0.144; in the data set with HeLa Kyoto [4] (cell cycle stage: mitosis), -1.37.
“MAGRGGAARPNGPAAGNKICQFKLVLLGESAVGKSSLVLRFVKGQFHEYQESTIGAAFLTQTVCLDDTTVKFEIWDTAGQERYHSLAPMYYRGAQAAIVVYDITNTDTFARAKNWVKELQRQASPNIVIALAGNKADLASKRAVEFQEAQAYADDNSLLFMETSAKTAMNVNEIFMAIAKKLPKNEPQNATGAPGRNRGVDLQENNPASRSQCCSN [RAB5C]”: the “solubility in G1/S (log2)” value in the data set on HeLa Kyoto [1] is 0.382. Besides, the melting temperature with HeLa Kyoto [2] (cell cycle stage: G1/S) came to 58.7 °C; with HeLa Kyoto [2] (cell cycle stage: mitosis), 59.4 °C. Further, in the data set on HeLa Kyoto [3], the “solubility change mitosis (log2)” value was -0.161. Further, the thermal stability score was -2.16 in the data set with HeLa Kyoto [4] (setting [5]) and -3.11 in the data set with HeLa Kyoto [4] (cell cycle stage: mitosis).
Turning to “MAGRLLGKALAAVSLSLALASVTIRSSRCRGIQAFRNSFSSSWFHLNTNVMSGSNGSKENSHNKARTSPYPGSKVERSQVPNEKVGWLVEWQDYKPVEYTAVSVLAGPRWADPQISESNFSPKFNEKDGHVERKSKNGLYEIENGRPRNPAGRTGLVGRGLLGRWGPNHAADPIITRWKRDSSGNKIMHPVSGKHILQFVAIKRKDCGEWAIPGGMVDPGEKISATLKREFGEEALNSLQKTSAEKREIEEKLHKLFSQDHLVIYKGYVDDPRNTDNAWMETEAVNYHDETGEIMDNLMLEAGDDAGKVKWVDINDKLKLYASHSQFIKLVAEKRDAHWSEDSEADCHAL [NUDT9]”, the “solubility in G1/S (log2)” value in the data set on HeLa Kyoto [1] amounted to 0.41. Further, the melting temperature in the data set on HeLa Kyoto [2] (cell cycle stage: G1/S) is 50.3 °C; in the data set with HeLa Kyoto [2] (cell cycle stage: mitosis), 50.5 °C. In the data set on HeLa Kyoto [3], the “solubility change mitosis (log2)” value turned out to be 0.00145. For the same sequence, the results for the thermal stability score in the data set with HeLa Kyoto [4] (setting [5]) and with HeLa Kyoto [4] (cell cycle stage: mitosis) were -0.398 and -0.161, respectively.
As for “MAGSRQRGLRARVRPLFCALLLSLGRFVRGDGVGGDPAVALPHRRFEYKYSFKGPHLVQSDGTVPFWAHAGNAIPSSDQIRVAPSLKSQRGSVWTKTKAAFENWEVEVTFRVTGRGRIGADGLAIWYAENQGLEGPVFGSADLWNGVGIFFDSFDNDGKKNNPAIVIIGNNGQIHYDHQNDGASQALASCQRDFRNKPYPVRAKITYYQNTLTVMINNGFTPDKNDYEFCAKVENMIIPAQGHFGISAATGGLADDHDVLSFLTFQLTEPGKEPPTPDKEISEKEKEKYQEEFEHFQQELDKKKEEFQKGHPDLQGQPAEEIFESVGDRELRQVFEGQNRIHLEIKQLNRQLDMILDEQRRYVSSLTEEISKRGAGMPGQHGQITQQELDTVVKTQHEILRQVNEMKNSMSETVRLVSGMQHPGSAGGVYETTQHFIDIKEHLHIVKRDIDNLVQRNMPSNEKPKCPELPPFPSCLSTVHFIIFVVVQTVLFIGYIMYRSQQEAAAKKFF [LMAN1]”, in the data set with HeLa Kyoto [1], the “solubility in G1/S (log2)” value came out at 0.173. For the same sequence, the melting temperature is 53.3 °C in the data set with HeLa Kyoto [2] (cell cycle stage: G1/S) and 53.5 °C with HeLa Kyoto [2] (cell cycle stage: mitosis). Besides, the “solubility change mitosis (log2)” value with HeLa Kyoto [3] is -0.0873. Besides, the thermal stability score with HeLa Kyoto [4] (setting [5]) turned out to be 3.5; in the data set on HeLa Kyoto [4] (cell cycle stage: mitosis), 5.07.
For “MAGTGLVAGEVVVDALPYFDQGYEAPGVREAAAALVEEETRRYRPTKNYLSYLTAPDYSAFETDIMRNEFERLAARQPIELLSMKRYELPAPSSGQKNDITAWQECVNNSMAQLEHQAVRIENLELMSQHGCNAWKVYNENLVHMIEHAQKELQKLRKHIQDLNWQRKNMQLTAGSKLREMESNWVSLVSKNYEIERTIVQLENEIYQIKQQHGEANKENIRQDF [BCAS2]”, the “solubility in G1/S (log2)” value in the data set with HeLa Kyoto [1] is -0.134. Besides, the melting temperature turned out to be 50.4 °C in the data set on HeLa Kyoto [2] (cell cycle stage: G1/S) and 50.3 °C with HeLa Kyoto [2] (cell cycle stage: mitosis). For the same sequence, the “solubility change mitosis (log2)” value in the data set on HeLa Kyoto [3] stood at 0.721. Moreover, the thermal stability score is -0.858 with HeLa Kyoto [4] (setting [5]) and -0.925 in the data set on HeLa Kyoto [4] (cell cycle stage: mitosis).

The values are drawn from the supplement of paper PMC5998384.
